pKd: −log10 of the molar value. Values joined by “and” are separate entries in the source; they are usually repeats but may differ in a detail not shown here. Equal entries are not always repeated.
What was measured:
[1] = molecular target: wild-type rat Neurotensin Receptor 1 (rNTSR1) (rat) (UniProt P20789); test: radioligand binding
[2] = molecular target: wild-type human Neurotensin Receptor 1 (hNTSR1) (human) (UniProt P30989); test: radioligand binding
Sequence of wild-type human Neurotensin Receptor 1 (hNTSR1) (human) (P30989 whole entry): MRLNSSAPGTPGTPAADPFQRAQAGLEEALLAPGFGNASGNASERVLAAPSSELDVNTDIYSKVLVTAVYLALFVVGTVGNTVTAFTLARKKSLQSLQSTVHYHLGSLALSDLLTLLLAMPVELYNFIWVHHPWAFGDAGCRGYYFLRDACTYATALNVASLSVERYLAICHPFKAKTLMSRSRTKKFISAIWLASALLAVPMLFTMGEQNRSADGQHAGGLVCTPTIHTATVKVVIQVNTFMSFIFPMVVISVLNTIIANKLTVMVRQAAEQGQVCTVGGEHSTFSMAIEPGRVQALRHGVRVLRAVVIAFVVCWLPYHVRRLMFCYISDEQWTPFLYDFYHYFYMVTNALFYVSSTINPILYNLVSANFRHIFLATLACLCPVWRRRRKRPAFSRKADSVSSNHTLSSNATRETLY

Sequence of wild-type rat Neurotensin Receptor 1 (rNTSR1) (rat) (P20789 whole entry): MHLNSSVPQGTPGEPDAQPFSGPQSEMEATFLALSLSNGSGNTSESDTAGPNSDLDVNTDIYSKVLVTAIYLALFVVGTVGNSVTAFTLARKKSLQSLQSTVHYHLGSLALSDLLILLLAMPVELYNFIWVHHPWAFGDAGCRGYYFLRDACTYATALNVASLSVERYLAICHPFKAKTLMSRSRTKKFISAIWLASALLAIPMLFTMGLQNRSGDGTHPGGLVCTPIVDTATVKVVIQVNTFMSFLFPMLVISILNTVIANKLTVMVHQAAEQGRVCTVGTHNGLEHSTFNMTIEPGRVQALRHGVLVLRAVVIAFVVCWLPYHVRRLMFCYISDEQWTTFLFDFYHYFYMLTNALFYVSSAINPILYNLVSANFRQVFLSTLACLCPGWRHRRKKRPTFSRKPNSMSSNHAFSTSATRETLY

pKd [1]: 8.64 and 9.17
pKd [2]: 8.67 and 9.04
Substance: [3H]Neurotensin (peptide)
